Tests used:
[1] = molecular target: AspBHI, modification-dependent restriction endonuclease from Azoarcus sp. BH72 (Azoarcus sp. BH72); assay: SEC
[2] = molecular target: AspBHI, modification-dependent restriction endonuclease from Azoarcus sp. BH72 (Azoarcus sp. BH72); assay: crystal structure

stoichiometry N [1]: 4
stoichiometry N [2]: 4
Substance: AspBHI, modification-dependent restriction endonuclease from Azoarcus sp. BH72 (enzyme)
